Test results taken from patent US11441131B2, “Heparosan synthases and use thereof for saccharide synthesis” (The Regents of the University of California, priority 2019, dated 2022).

Tests used:
[1] = Survival of lyophilization assay; type: physicochemical; details: dialysis, rehydration, compared with freshly prepared enzyme
Description: Survival of lyophilization assays. […] The resulting powders were stored at −80° C. for 3 days. For activity assays, the dried powder was dissolved in water. […] Chromatographic separation and detection were achieved similarly as described above for the kinetics studies except that an isocratic flow (0.3 mL/min) of a mixed solvent (32% acetonitrile/68% water with 0.1% TFA) was used for elution.

[2] = Isoelectric point (pI); type: physicochemical
[3] = Behaviour during dialysis; type: physicochemical
[4] = Protein expression and purification; set-up: species or system E. coli BL21 (DE3); details: per L culture
Description: Protein expression and purification. The plasmid-bearing E. coli BL21(DE3) cells were cultured in 1 L of LB-rich media (10 g/L tryptone, 5 g/L yeast extract and 10 g/L NaCl) supplemented with ampicillin (100 μg/mL). Expression of the target protein was achieved by inducing the E. coli culture with 0.1 mM of isopropyl-1-thio-β-D-galactopyranoside (IPTG) when OD600 nm reached 0.8-1.0, followed by incubating at 20° C. for 20 h with shaking at 250 rpm in a C25KC incubator shaker (New Brunswick Scientific, Edison, N.J.). Histidine-tagged target proteins were purified from cell lysate. To obtain the cell lysate, cell pellet harvested by centrifugation at 2,795 g for 50 min was resuspended (25 mL/L cell culture) in lysis buffer (Tris-HCl, 100 mM, pH 8.0 with 0.1% Triton X-100). Sonication protocol was 2 s (sonication)/3 s (rest) for a total of 6 min on ice. Lysed cells were centrifuged at 5,000 g for 50 min and the supernatant (lysate) was collected. Purification of histidine-tagged proteins from the lysate was achieved using a Ni′-resin column. The column was pre-equilibrated with 10 column volumes of binding buffer (5 mM imidazole, 0.5 M NaCl, 50 mM Tris-HCl, pH 7.5). The lysate was then loaded, and the column was washed with 10 column volumes of binding buffer and 10 column volumes of washing buffer (16 mM imidazole, 0.5 M NaCl, 50 mM Tris-HCl, pH 7.5). The target protein was eluted with Tris-HCl buffer (50 mM, pH 7.5) containing imidazole (200 mM) and NaCl (0.5 M). The fractions containing the purified enzymes were collected, and stored at 4° C.

[5] = Effect of UDP concentration on reverse glycosylation activity; type: biochemical; details: O6 1 mM, enzyme 15 μM
Description: Reactions were stopped by heating reaction mixtures at 70° C. for 10 min followed by incubation on ice for 30 min, and centrifugation at 11,337 g for 15 min. Supernatants were analyzed using an Infinity 1290 II HPLC equipped with 1260 Infinity II Diode Array Detector WR (monitored at 254 nm, Agilent Technologies, CA). An AdvanceBio Glycan Mapping column (1.8 μm particle, 2.1×150 mm, Agilent Technologies, CA) was used with a gradient (13 min) of 0.5 mL/min for 90% to 70% acetonitrile and a solution of water with 0.1% TFA for analysis.

[6] = Relative activity comparison with acceptor GlcAβProNHFmoc (O1) and UDP-GlcNAc; type: biochemical; details: for GlcNAcα1-4GlcAβProNHFmoc (%): percentage conversion, 30 min, HPLC
Description: (§1) Reactions were stopped by heating reaction mixtures at 70° C. for 10 min, followed by incubation on ice for 30 min and centrifugation at 11,337 g for 15 min.

[7] = Thermostability assay; type: physicochemical; details: 30 min incubation at 25-50 °C
Description: Thermostability assays. […] UHPLC detection was carried out similarly as described above for kinetics studies.

[8] = Coupled-enzyme reverse glycosylation assay with NmLgtA and LacβMU; type: biochemical; details: His6-Δ80PmHS2 +, UDP-GlcNAc −
Description: Coupled-enzyme reverse glycosylation assay. […] Reactions were stopped by heating reaction mixtures at 70° C. for 10 min followed by incubation on ice for 30 min and centrifuged at 11,337 g for 15 min.

[9] = Relative activity comparison with acceptor GlcNAcαProNHFmoc and UDP-GlcA; type: biochemical; details: enzyme 1.5 mg/mL; percentage conversion, 30 min, HPLC
Description: as §1

B1: His6-Δ80PmHS2: N-terminal His6-tagged and N-terminal 80 amino acid-truncated PmHS2 (SEQ ID NO:3) (protein)
chain: MGSSHHHHHHSFEKIYTYNQALEAKLEKDKQTTSITDLYNEVAKSDLGLVKETNSANPLVSIIMTSHNTAQFIEASINSLLLQTYKNIEIIIVDDDSSDNTFEIASRIANTTSKVRVFRLNSNLGTYFAKNTGILKSKGDIIFFQDSDDVCHHERIERCVNILLANKETIAVRCAYSRLAPETQHIIKVNNMDYRLGFITLGMHRKVFQEIGFFNCTTKGSDDEFFHRIAKYYGKEKIKNLLLPLYYNTMRENSLFTDMVEWIDNHNIIQKMSDTRQHYATLFQAMHNETASHDFKNLFQFPRIYDALPVPQEMSKLSNPKIPVYINICSIPSRIAQLQRIIGILKNQCDHFHIYLDGYVEIPDFIKNLGNKATVVHCKDKDNSIRDNGKFILLEELIEKNQDGYYITCDDDIIYPSDYINTMIKKLNEYDDKAVIGLHGILFPSRMTKYFSADRLVYSFYKPLEKDKAVNVLGTGTVSFRVSLFNQFSLSDFTHSGMADIYFSLLCKKNNILQICISRPANWLTEDNRDSETLYHQYRDNDEQQTQLIMENGPWGYSSIYPLVKNHPKFTDLIPCLPFYFL
modifications: N-terminal His6 tag
[1]
  activity after lyophilization: without loss of activity
[2]
  pI: 6.61
[3]
  behaviour during dialysis: remained soluble
[4]
  expression level: 60 to 80 mg/L
[5]; UDP 0 (nM)
  O6 (%): 100%
[5]; UDP 1 (nM)
  O4 (%): 6.7%
  O5 (%): 2.6%
  O6 (%): 81.6%
  O8 (%): 7.9%
  O10 (%): 0.8%
[5]; UDP 5 (nM)
  O1 (%): 3.4%
  O2 (%): 1.5%
  O3 (%): 0.6%
  O4 (%): 16.9%
  O5 (%): 4.2%
  O6 (%): 58.0%
  O7 (%): 0.4%
  O8 (%): 12.8%
  O10 (%): 1.9%
  O12 (%): 0.2%
[5]; UDP 10 (nM)
  O1 (%): 3.4%
  O2 (%): 7.8%
  O3 (%): 1.5%
  O4 (%): 18.9%
  O5 (%): 3.8%
  O6 (%): 38.0%
  O7 (%): 1.8%
  O8 (%): 18.6%
  O9 (%): 0.7%
  O10 (%): 4.2%
  O12 (%): 1.1%
[6]
  efficiency of GlcAβProNHFmoc (O1) over GlcNAcαProNHFmoc as substrate in disaccharide production: 130 fold
[6]; enzyme 0.06 mg/mL
  GlcNAcα1-4GlcAβProNHFmoc (%): 50.8 ± 6.0%
[6]; enzyme 1.5 mg/mL
  GlcNAcα1-4GlcAβProNHFmoc (%): 100%
[7]
  increase of Tso (temperature at which the enzyme retains 50% of maximum activity) compared to WT: approximately 7 °C
[8]; Reaction 1: NmLgtA +, UDP +
  GlcNAcβ1-3LacβMU (%): 9.7 ± 0.6%
  LacβMU (%): 90.3 ± 0.6%
  O2 (%): 9.3%
  O3 (%): 1.0%
  O4 (%): 16.2%
  O5 (%): 4.4%
  O6 (%): 36.2%
  O7 (%): 3.0%
  O8 (%): 20.4%
  O9 (%): 0.6%
  O10 (%): 7.3%
  O12 (%): 1.7%
[8]; Reaction 2: NmLgtA −, UDP +
  LacβMU (%): 100%
  O2 (%): 11.4%
  O3 (%): 0.7%
  O4 (%): 23.7%
  O5 (%): 5.1%
  O6 (%): 35.1%
  O7 (%): 1.2%
  O8 (%): 15.8%
  O9 (%): 0.5%
  O10 (%): 5.1%
  O12 (%): 1.2%
[8]; Reaction 4: NmLgtA +, UDP −
  LacβMU (%): 100%
  O6 (%): 100%
[9]
  GlcAβ1-4GlcNAcαProNHFmoc (%): 9.8 ± 0.4%
